Results published in the FLAb antibody collection (doi:10.1101/2023.12.08.570889).

Biological target: TSLP, Q969D9
Test: Kd (SPR)

Binder	Kd [nM]
unnamed (protein) chain 1: QMQLVESGGGVVQPGRSLRLSCAASGFTFSTFAMHWVRQAPGKGLEWVAVIWYDGSNKHYADSVKGRFTITRDNSKNTLNLQMNSLRAEDTAVYYCARAPRYDEYLEAFDVWGQGTMVTVSS chain 2: SYVLTQPPSVSVAPGQTARITCGGNNLGSKSVHWYQQKPGQAPVLVVYDDSDRPSWIPERFSGSNSGNTATLTISRGEAGDEADYYCQVWDSSSDHVVFGGGTKLTVL	305
unnamed (protein) chain 1: QMQLVESGGGVVQPGRSLRLSCAASGFTFSTFAMHWVRQAPGKGLEWVAVIWYDGSNKHYADSVKGRFTITRDNSKNTLNLQMNSLRAEDTAVYYCARAPRYDEAYEAFDVWGQGTMVTVSS chain 2: SYVLTQPPSVSVAPGQTARITCGGNNLGSKSVHWYQQKPGQAPVLVVYDDSDRPSWIPERFSGSNSGNTATLTISRGEAGDEADYYCQVWDSSSDHVVFGGGTKLTVL	502
unnamed (protein) chain 1: QMQLVESGGGVVQPGRSLRLSCAASGFTFSTFAMHWVRQAPGKGLEWVAVIWYDGGNKHYADSVKGRFTITRDNSKNTLNLQMNSLRAEDTAVYYCARAPRYDEYYEAFDVWGQGTMVTVSS chain 2: SYVLTQPPSVSVAPGQTARITCGGNNLGSKSVHWYQQKPGQAPVLVVYDDSDRPSWIPERFSGSNSGNTATLTISRGEAGDEADYYCQVWDSSSDHVVFGGGTKLTVL	217
unnamed (protein) chain 1: QMQLVESGGGVVQPGRSLRLSCAASGFTFSTYAMHWVRQAPGKGLEWVAVIWYDGSNKHYADSVKGRFTITRDNSKNTLNLQMNSLRAEDTAVYYCARAPRYYDYWEAFDVWGQGTMVTVSS chain 2: SYVLTQPPSVSVAPGQTARITCGGNNLGSKSVHWYQQKPGQAPVLVVYDDSDRPSWIPERFSGSNSGNTATLTISRGEAGDEADYYCQVWDSSSDHVVFGGGTKLTVL	285
unnamed (protein) chain 1: QMQLVESGGGVVQPGRSLRLSCAASGFTFSTYAMHWVRQAPGKGLEWVAVIWYDGSNKHYADSVKGRFTITRDNSKNTLNLQMNSLRAEDTAVYYCARSPRYDYYYEAFDVWGQGTMVTVSS chain 2: SYVLTQPPSVSVAPGQTARITCGGNNLGSKSVHWYQQKPGQAPVLVVYDDSDRPSWIPERFSGSNSGNTATLTISRGEAGDEADYYCQVWDSSSDHVVFGGGTKLTVL	524
